Experimental data published in the DeepSol protein solubility set.

experiment: soluble on expression in E. coli; label from the status in PepcDB or PDB records

Soluble on expression in E. coli, not soluble:
MAHHHHHHMEPLIIDNLYKFGDEEVRLGIDEAGRGPVLGPMVYAGFYCNKEHEKLLKEMKIDDSKKISEADREMMFHKLNNSSLPFGWRIHVLMPQDISAKMLKKQKYNLNEISHDTAISIIDHVISRGCNLTEVFVDTVGKPSVYEEKLKRLFPHIKCTVKEKADSLYPVVSAASICAKVTRDFLIKKWKYEEPLVNIDKGFGSGYPGDPITKNFLKNNFDTVFGFPSIVRFSWSTADNMLETMGEQIEWYDDIENNDSKAIKRKTPFDYSKLQKPFVQRSLFYSKVGLDLVENL
MAHHHHHHMFISEDLDPEALKNEANIKWKEVIGKGNMEEANIIWRQALKECIKYSMRGIPTNKNRDMQISLRLNLSLYHYKKKEYSDCINQCNIIIDNLLNLEEMLQYYNMGDEEENKKESNNNDGDKGDHISDDKGDHMSDDKGDHKDDDKGDHMSDDKGDHKDDDKGDHMSDDKGDHKDDDKGDHMSDDKDKSNVNLREKKYIIKKDILIKIFLRRASSFLCLQEFNKCNEDLGIIKKLENNDAEAATLEKRMIIEKKDYERKQKELYKKMCNSK
MAHHHHHHMGGGGSIPRKKATSARQVSTDRSVRRLQTKRRVGEPRFNGIGYVTIPLCIQEDLPPPPEDDDAPDDSTRKFAWFVEDLDMPGEWELYPPDACERLDEARRSNMTECLVVVKKRMCTVNLVKMEHLCAGSNARPRQVKRVEVEVSNGTTTYQEKRKVPNDPFAEDSPRETPSPMELFESEENAVHDVGSATTTKAEPEKVPNLVRSILTEKTTSYAMSLTSNGTTVFSGTKAQMLRWDLKTAEVTAEFDVQDSVVLSNALSHDERHVVAGRSDCTASMHSVDGSTSCVFSGHQRKVYGVDFLLGDDRVATASMDCTVRIWDASTSTCVQTIGCSAASVFTVVTSDLNNHFALSAGDDNIIYAHDLRSGGDCVIDRFIDHASTVWCCALRNDEQVFASCGIDGVIRVWDIRNSSSPTLLLRHHEKPVHMVKFTPRGRAILSCGRDDNMRLTDAMTGEPLWRAVAHRRFVYRIAFSKEKKFILSSGGDHRVNVWNYDYIDRM
MAHHHHHHMGKGAVHPNGSNFCRAIKYNIVDKMRMLVETNLYDRPRWLEWAERAPPIEIHNISLKSRYNNNKYIDLVKFLLKKYPHLRFQDCYVEGNNNVKGYDFFRNDHIITQMATHQLYYMNRGYGKKDALQKVEKEFYNRRMELEKKQKINMCLSIDKKIKPLYTDGYAYLYEKMADNEKAHLGLILKKLRAMREKLEKEQGGDGAQPHT

Soluble on expression in E. coli, soluble:
MAHHHHHHMFRRLSVCVPFATTARFYTPSEELKKLYASDFERAQFPANIVPSDSVTFAKFLYKAVEPKGSFDTILKDFQTIAAAIPKLPVFWQRTVVVSEVSEFKSLSAPTTFTLEWMQSNGMLDLLPDVAEVYETYVNAKMKRVTAKIYVAAGKEQDRALVDKAKKVAEQVVKDNQQFAGYTLVPKVLVDRSIVEGFAVDVQGTYVNEAVGRKKETQASGEVDYTTIPPPRLSKTTWEDNIETEVLRKYLDSLSLYDAEELKSGV
MAHHHHHHMGENRRPSRWSSERYTNLFVPNYIPPELMLYDEGQFLRAFLLRVLSIDLNRLIETKRCGDYFINIPLVPEYNSEGQRTNTPDELVAEKRLKVMDELTNLLRQHSELELNAKTQKEVVRKRYFTQEEMDNGAYGAILGARGMVHQELERLTKCKIVLAGRGITNALKDTSANAARVALEDPHARITAPNEQALQHAMERIEWILSDDPEALEFRENNRKRMAQIEGRYDPRTWVSLAERNAKNPRRMGEKREREEEAKEELDADLQEFLDEL
MAHHHHHHMGFPAVPFVEDKNDAEILRDEADDEFASYFKEGRKPKILITTGEHPCFRTKLFVKEALWLFPNSIYRPRKKYNLKEITQFCINREFTDLIVVTDRLKEPYNLIISHLPEGPTAMFRVSNFMTHAQLKDPAPRTEHYPELIFKNFDTRLGRRINRLLECLFPATRDYEGRAVATFHNQRDYIFMRTHRYIFDSLDAVRIQEMGPRFTLRLLSLQSGTFDTQFGEYEWFRKKEHDDDKLEWYL
MAHHHHHHMGTLEAQTQGPGSMQYPPRLGFGTWQAPPEAVQTAVETALMTGYRHIDCAYVYQNEEAIGRAFGKIFKDASSGIKREDVWITSKLWNYNHRPELVREQCKKTMSDLQVDYLDLFLVHWPLAFVRNDVGDLFPKDAEGRAMLEKVPLADTWRAMEQLVEEGLVKHIGVSNYTVPLLADLLNYAKIKPLVNQIEIHPWHPNDATVKFCLDNGIGVTAYSPMGGSYADPRDPSGTQKNVILECKTLKAIADAKGTSPHCVALAWHVKKWNTSMYSVIPKSQTPARIEANFKCTEVQLSDDDMDAINNIHLNKRIRFCDPAIFWKVPLFD
